Measured values reported in patent US20220348617A1 (H LEE MOFFITT CANCER CENTER AND RESEARCH INSTITUTE, published 2022).

Key:
Notch1 EGF domains 6-13 = target: T1, Notch1 EGF domains 6-13 (human, UniProt P46531 218-526); assay: SPR, Notch immobilised, DLL4 flowed
T1 construct: domain: EGF domains 6-13; Immobilised on a streptavidin sensor chip; the other passages say only 'Notch 1'
Method: Binding affinities between DLL4 variants and Notch receptor subtypes were determined by surface plasmon resonance (SPR) (FIG. 7). Notch1 EGF domains 6-13, Notch2, EGF domains 6-13, or Notch 3 EGF domains 5-12 were immobilized on a sensor chip and various concentrations of DLL4 ligands were injected over the surface. A co-culture assay was used to monitor the inhibition of Notch signaling by DLL4.v3 (FIG. 8). A fluorescent Notch1 reporter cell line (CHO^N1) was co-cultured with 293T cells expressing wild-type human DLL4 (293TDLL4) in 96-well plates to activate signaling. This value was normalized to 100% Notch1 activation. A reduction in Notch1 activation was observed upon the addition of increasing concentrations of DLL4.v3 (20 nM, 200 nM, 2000 nM) to the co-cultures.

Notch 3 EGF domains 5-12 = target: T2, Notch 3 EGF domains 5-12 (human, UniProt Q9UM47 197-505); assay: SPR, Notch on streptavidin chip, DLL4 flowed
T2 construct: domain: EGF domains 5-12; the other passages say only 'Notch 3'
T2 sequence (looked up): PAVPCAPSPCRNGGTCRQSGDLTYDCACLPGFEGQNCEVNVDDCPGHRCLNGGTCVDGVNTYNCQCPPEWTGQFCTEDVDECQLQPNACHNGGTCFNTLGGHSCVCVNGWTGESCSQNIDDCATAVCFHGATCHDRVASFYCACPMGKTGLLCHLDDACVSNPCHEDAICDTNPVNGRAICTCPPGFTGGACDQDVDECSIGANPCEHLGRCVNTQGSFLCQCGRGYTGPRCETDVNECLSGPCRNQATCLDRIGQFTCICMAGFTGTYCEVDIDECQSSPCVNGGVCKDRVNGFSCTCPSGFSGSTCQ

B1: wildtype (WT) human DLL4 (ligand)
chain: SGVFQLQLQEFINERGVLASGRPCEPGCRTFFRVCLKHFQAVVSPGPCTFGTVSTPVLGTNSFAVRDDSSGGGRNPLQLPFNFTWPGTFSLIIEAWHAPGDDLRPEALPPDALISKIAIQGSLAVGQNWLLDEQTSTLTRLRYSYRVICSDNYYGDNCSRLCKKRNDHFGHYVCQPDGNLSCLPGWTGEYCQQPICLSGCHEQNGYCSKPAECLCRPGWQGRLCNECIPHNGCRHGTCSTPWQCTCDEGWGGLFCDQDLNYCTHHSPCKNGATCSNSGQRSYTCTCRPGYTGVDCE
notes: Soluble protein flowed over immobilised Notch in SPR; also called wild-type DLL4
binding result (Notch1 EGF domains 6-13): binds
binding result (Notch 3 EGF domains 5-12): binds
